Reference: US20220242941A1 (NOVOBIND LIVESTOCK THERAPEUTICS, published 2022)

T1: Eimeria maxima MIC2 (Eimeria maxima)
T1 construct: Recombinant antigen coated on ELISA wells; also called EmMIC2
T1 chain: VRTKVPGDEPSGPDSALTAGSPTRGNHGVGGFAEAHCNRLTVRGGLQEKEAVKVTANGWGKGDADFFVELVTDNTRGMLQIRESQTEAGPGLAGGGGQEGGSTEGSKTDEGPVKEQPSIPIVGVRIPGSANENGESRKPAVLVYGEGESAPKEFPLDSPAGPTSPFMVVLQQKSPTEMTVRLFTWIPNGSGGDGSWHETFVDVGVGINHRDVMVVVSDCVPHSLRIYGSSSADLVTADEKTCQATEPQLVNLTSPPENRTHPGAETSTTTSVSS

B1: NBX16035 (VHH)
VHH: QVQLQESGGGLVQAGGSLRLSCAASGSIFSINVIGWYRQVPGKERELVANSGSTTKYADSVKGRFTISRDNAKNTVDLQMNSLKPEDTAVYYCNAVVTSRTSLGLRSYVYWGQGTQVTVSS
B2: NBX16041 (VHH)
VHH: QVQLQESGGGLVQAGGSLRLSCAASGSIFSINVIGWYRQAPGKERELVANSGSTTKYADSVKGRFTISRDNAKNTVDLQMNSLKPEDTAVYYCNAVVTSRTSLGLRSYAYWGQGTQVTVSS
B3: NBX16037 (VHH)
VHH: QVQLQQSGGGLVQAGGSLRLSCAASGSIFSINVIGWYRQVPGKERELVAKSDRTTKYADSVKGRFTISRDNAKNTVDLQMNSLKPEDTAVYYCNAVVTSRTSQGLRSYAYWGQGTQVTVSS
B4: NBX16034 (VHH)
VHH: QVQLQESGGGVVQAGGSLRLSCVASGSDTSVYAMRWWRQVPGKERLLLASITSGGTVRYAESVKGRFTISRDDAKNTLYLQMNSLKTEDTAVYLCNAERVLARQNYWGQGTQVTVSS
B5: NBX16042 (VHH)
VHH: QVQLQESGGGLVQAGGSLRLSCVASGITFNFNYYVMGWYRQAPGKQRELVARISDGGNTNYADSVKGRFTISRDNTKNTGYLQMNSLKPEDTAIYYCNLRRSWAPADNGHWGQGTQVTVSS
B6: NBX16038 (VHH)
VHH: QVQLQQSGGGLVQSGGSLRLSCTATRSTISGYGGRWYRQAPGKQREFVALLSSGGMTRYADSVMGRFTISRDDIKNTLYLQMNTLKPEDTAVYYCNTFDGAWGQGTQVTVSS
B7: NBX16040 (VHH)
VHH: QVQLQESGGGMVQAGGSLRLSCAASGTTITINTMRWYRQPPGKERELVASIVPSGKTYYADSVKGRFTISRDNHKNTMYLQMNSLKPEDTAVYYCNSDGRFRGIGTYWGQGTQVTVSS
B8: NBX16033 (VHH)
VHH: QVQLQESGGGTVQAGGSLRLSCAVSGSTFSSYSMNWYRQGPGNQREWVGGIRSNDSTYYADSVKGRFTISRDNAKNAWNLQMNSLKSEDTAVYYCNFWDGSFNQYWGQGTQVTVSA
B9: NBX16043 (VHH)
VHH: QVQLQESGGGLVQAGGSLRLSCAASGIAFSMFDMVWYRQAPGKQRELVASVSDGGSTAYADSVKGRFTISRDNAKKMVYLQMNSLKPEDTAVYYCKAARSWAYGSGYWGQGIQVTVSS
B10: NBX16039 (VHH)
VHH: QVQLQQSGGGLVQAGGSLRLSCTTSGIIFSFSLLNVGWYRQAPGKERELVARMSTAGNTYYSTSVKDRFTISRDNGKNTVDLQMNSLNADDTAVYYCNLRRSWAPSDSGFWGQGTQVFVSS
B11: NBX16036 (VHH)
VHH: QVQLQESGGGLVQAGGSLRLSCVALGNIGWINDMGWYRQAPGKERELVARISSAEATNYADAVKGRFTISRDDAKNTVYLQMNSLKPEDTAVYSCHTRRWYDDGYDYDTWGQGTQVTVSS
B12: NBX0707 (VHH)
VHH: QVQLQESGGGLVQAGGSLRLSCAASGSIFSRDTMAWYRQVPGEQRELVAFITNFGGTNHADSVKGRFTISRDNAKNTVYLQMNSLKPEDTAVYYCAAGLVSLRTHTWEYWGQGTQVTVSS
B13: NBX0752 (VHH)
VHH: QVQLQESGGGLVQAGGSLRLSCAASGSIFSRDNMAWYRQVPGEQRELVALITNFGGTNHADSVKGRFTISRDNAKNTVYLQMNSLKPEDTAVYYCAAGLVSLLTHTWEYWGQGTQVTVSS
B14: NBX0734 (VHH)
VHH: QVQLQESGGGLVQAGGSLRLSCAASGSIFSRDTMAWYRQVPGEQRELVAYITNFGGTNHADSVKGRFTISRDNAKNTVYLQMNSLKPEETAVYYCAAGLVSLRTHTWEYWGQGTQVTVSS
B15: NBX0709 (VHH)
VHH: QVQLQESGGGLVQAGGSLRLSCAASGSIFSRDTMAWYRQVPGEQRELVAYITNFGGTNHADSVKGRFTISRDNAKNTVYLQMNSLKPEDTAVYYCAAGLVSLHTHTWEYWGQGTQVTVSS
B16: NBX0714 (VHH)
VHH: QVQLQESGGGLVQAGGSLRLSCAASGSIFSRDTMAWYRQVPGEQRELVAYITNFGGTNHAGSVKGRFTISRDNAKNTVYLQMNSLKPEDTAVYYCAAELVSLRTHTWEYWGQGTQVTVSS
B17: NBX0731 (VHH)
VHH: QVQLQESGGGLVQPGGSLRVSCAASGFTFSRDTMAWYRQVPGEQRELVAYITNFGGTNHADSVKGRFTISRDNAKNTVYLQMNSLKPEDTAVYYCAAGLVSLRTHTWEYWGQGTQVTVSS
B18: NBX0750 (VHH)
VHH: QVQLQESGGGLVQPGDSLRLSCAPSGRTFSGYVTGWFRQAPGMEREFVAAITWSGDSTYYADSVKGRFQISRDSAKNTVYLQMNSLKPEDAGVYYCAVKSQTYSTDYVQPRRYAYWGQGTQVTVSS
B19: NBX0717 (VHH)
VHH: QVQLQESGGGLVQAGGSLRLSCAASTNIATFTTMGWYRQAPGKERELVATTTPWGATTSYADSVKGRFTISNDNAKNTVNLQMNSLKPEDTAVYYCNAQQDIPTTQTYWGQGTQVTVSS
B20: NBX0711 (VHH)
VHH: QVQLQQSGGGLVQPGGSLRLSCAASRSIRSADAMAWYRQAPGKQRVWVATITSGGSTYYTDSVKGRFTISRDNAKSTVYLQMSSLKPEDTAVYYCNAVGDRTSYWGQGTQVTVAS
B21: NBX0733 (VHH)
VHH: QVQLQQSGGGLVQPGGSLRLSCAASGSIFSVDAMAWYRQAPGKQREWVATFTKGGSTYYAGSVKGRFTISRDNAKNTVYLQMSSLKPEDTAVYYCNAVGDRTGAWGQGTQVTVAS
B22: NBX0713 (VHH)
VHH: QVQLQESGGGLVQPGGSLRLSCAASGRTFRRNAMGWFRQAPGKAREFVATISWSGNRAYSDSVKGRFTISRDNGKNLVSLQMNSLKPEDTAVYYCAAARERITSTYYTPHVLTDYDAWGQGAQVTVSS
B23: NBX0715 (VHH)
VHH: QVQLQQSGGGLVQAGGSLRLSCAASGRTFSRNAMGWFRQAPGKAREFVATISWSGNRAYSDSVKGRFTISRDNEKNLVSLHMNSLKPEDTAVYYCAAARERITSTYYTPHVLTDYDAWGQGAQVTVSS
B24: NBX0712 (VHH)
VHH: QVQLQESGGGLVQTGGSLRLSCAASGRTFTRNAMGWFRQAPGKAREFVAVISWSGNRAYSDSVKGRFTISRDNGKNLVSLQMNSLKPEDTAVYYCAAAREAITSTYYTPHVLTDYDAWGQGAQVTVSS
B25: NBX0732 (VHH)
VHH: QVQLQESGGGLVQTGGSLRLSCAASGRTFRRNAMGWFRQAPGKAREFVATITWSGNRAYSDSVKGRFTISRDNEKNLVSLQMNSLKPEDTAVYYCAAARERITSTYYTPHVLTEYDAWGQGAQVTVSS
B26: NBX0716 (VHH)
VHH: QVQLQESGGGLVQAGGSLSLSCTASGRTFSTFPVAWFRQAPGKEREFVARINWFTTDTYYADSVKGRFTISRDSAKNTVYLQMNALKPEDTAIYYCAAARSNTGTSRFDYWGQGTQVTVSS
B27: NBX0718 (VHH)
VHH: QVQLQESGGGLVQAGGSLRLSCAANGRTFSSYAMAWFRQAPGKEREFVAAVGWSGGRTYYTDSVKGRFTISRDNAKDTVYLQMNSLKPEDTAVYYCAATRGWAQATLLYDYDYWGQGTQVTVSS
B28: NBX0708 (VHH)
VHH: QVQLQESGGGLVQAGDSLSLSCVDSKRTADRYVMHWFRQVPGKDREFVAAISGNGLVRNYADSVKGRFTISRDNAKNMVYLQMKSLKPEDTAVYYCAADFVLDSRWRYVPYWGQGTQVTVSS
B29: NBX0740 (VHH)
VHH: QVQLQESGGGLVQAGGSLRLSCAASGRTFVNYNMGWFRQAPGKEREFVATINWSGGSTYYAGSVKGRFTISRDSAKNTVYLQMNKLKPEDTAVYYCAAEVGYGYQGPPLTTPSMYDYWGQGTQVTVST

The binders below were run against T2, GST fusion of the EtAMA1-binding peptide of EtRON2 (Eimeria tenella, UniProt P08515 1-218 = GST) (assay: phage ELISA, wells coated with GST-RON2 peptide).
T2 construct: Expressed in E. coli, purified as the other antigens but without TEV cleavage, so a His tag and TEV site probably remain; also called GST-RON2 peptide
T2 sequence (P08515 1-218, tags or fused parts left off): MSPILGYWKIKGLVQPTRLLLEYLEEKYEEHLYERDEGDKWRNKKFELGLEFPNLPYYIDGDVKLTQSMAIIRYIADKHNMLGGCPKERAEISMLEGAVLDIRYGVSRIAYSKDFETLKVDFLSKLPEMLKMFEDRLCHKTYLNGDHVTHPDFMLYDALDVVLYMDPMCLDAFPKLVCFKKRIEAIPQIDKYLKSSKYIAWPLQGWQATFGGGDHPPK
With B1 the “binding relative to GST-coated wells” value was no less than 3 times and the “binding relative to PBS-coated wells” value was no less than 4 times.
For B2, the “binding relative to GST-coated wells” value was no less than 3 times and the “binding relative to PBS-coated wells” value was no less than 4 times.
In the case of B3, the “binding relative to GST-coated wells” value is reported as no less than 3 times and the “binding relative to PBS-coated wells” value is reported as no less than 4 times.
With B4 the “binding relative to GST-coated wells” value was no less than 3 times and the “binding relative to PBS-coated wells” value was no less than 4 times.
B5 was tested, and the “binding relative to GST-coated wells” value was no less than 3 times and the “binding relative to PBS-coated wells” value was no less than 4 times.
In the case of B6, the “binding relative to GST-coated wells” value is reported as no less than 3 times and the “binding relative to PBS-coated wells” value is reported as no less than 4 times.
For B7, the “binding relative to GST-coated wells” value was no less than 3 times and the “binding relative to PBS-coated wells” value was no less than 4 times.
For B8, the “binding relative to GST-coated wells” value was no less than 3 times and the “binding relative to PBS-coated wells” value was no less than 4 times.
In the case of B9, the “binding relative to GST-coated wells” value is reported as no less than 3 times and the “binding relative to PBS-coated wells” value is reported as no less than 4 times.
With B10 the “binding relative to GST-coated wells” value was no less than 3 times and the “binding relative to PBS-coated wells” value was no less than 4 times.
With B11 the “binding relative to GST-coated wells” value was no less than 3 times and the “binding relative to PBS-coated wells” value was no less than 4 times.

Biological target: T1, Eimeria maxima MIC2
Test: phage ELISA, antigen-coated wells;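 further: antigen dissolved in PBS and coated onto wells, with negative-control wells holding PBS alone as the reference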
From the text: Black bars show binding to wells coated with the antigen specified in Tables 1 and 2 dissolved in phosphate-buffered saline (PBS). Grey bars are negative controls that show binding to wells coated with PBS only.
With B12 the “binding relative to PBS-coated wells” value was 4 times.
In the case of B13, the “binding relative to PBS-coated wells” value is reported as no less than 4 times.
B14 was tested, and the “binding relative to PBS-coated wells” value was no less than 4 times.
For B15, the “binding relative to PBS-coated wells” value was no less than 4 times.
With B16 the “binding relative to PBS-coated wells” value was no less than 4 times.
B17 was tested, and the “binding relative to PBS-coated wells” value was no less than 4 times.
In the case of B18, the “binding relative to PBS-coated wells” value is reported as no less than 4 times.
B19 was tested, and the “binding relative to PBS-coated wells” value was no less than 4 times.
With B20 the “binding relative to PBS-coated wells” value was no less than 4 times.
For B21, the “binding relative to PBS-coated wells” value was no less than 4 times.
In the case of B22, the “binding relative to PBS-coated wells” value is reported as no less than 4 times.
For B23, the “binding relative to PBS-coated wells” value was no less than 4 times.
In the case of B24, the “binding relative to PBS-coated wells” value is reported as no less than 4 times.
B25 was tested, and the “binding relative to PBS-coated wells” value was no less than 4 times.
With B26 the “binding relative to PBS-coated wells” value was no less than 4 times.
In the case of B27, the “binding relative to PBS-coated wells” value is reported as no less than 4 times.
In the case of B28, the “binding relative to PBS-coated wells” value is reported as no less than 4 times.
For B29, the “binding relative to PBS-coated wells” value was no less than 4 times.
